From paper PMC3428507 (Journal of molecular biology, 2012)
Like-named read-outs stand apart in the source and are kept apart here. Blank lines part the entries; values can stand above or below the binder they belong to.

B1: MRG domain of MRG15 (residues 155–323) (domain or fragment)
chain: not shown
B2: Pf1 PHD1/MBD (residues 48–241) (domain or fragment, human, UniProt Q96QT6 48-241, looked up)
chain: RRSGRATNHDSCDSCKEGGDLLCCDHCPAAFHLQCCNPPLSEEMLPPGEWMCHRCTVRRKKREQKKELGHVNGLVDKSGKRTTSPSSDTDLLDRSASKTELKAIAHARILERRASRPGTPTSSASTETPTSEQNDVDEDIIDVDEEPVAAEPDYVQPQLRRPFELLIAAAMERNPTQFQLPNELTCTTALPGSS

Assays:
Experiment in all cases: NMR titration
[1] = target: B2
[2] = target: T1, full-length MRG15 (residues 1–323) (human, UniProt Q9UBU8-2 1-323)
[3] = target: T1, full-length MRG15 (residues 1–323); remark: listed apart in the source

Binder: B1
binding result [1]: binds

binding result [2]: binds
Binder: DYVQPQLRRPFELLIAAAMERNPTQFQLPNELTCTTALPGSS (domain or fragment, human, UniProt Q96QT6 200-241, looked up) [MRG-binding domain of Pf1 (residues 200–241)]

Binder: B2
binding result [3]: binds
